Assay results reported in publication PMC2731243, “Structure and Novel Functional Mechanism of Drosophila SNF in Sex-Lethal Splicing”.
Values belong to the binder of their own block, whether it stands above or below them.

Key:
[1] = target: T1, SNF RRM1 (residues 1-104) (Drosophila melanogaster (Fruit fly), UniProt P43332); experiment: NMR 1H-15N HSQC comparison of full-length SNF with isolated RRMs, plus 15N relaxation; inferred in cis from full-length SNF versus isolated domains; separate RRM1 and RRM2 were not reported as mixed in trans
T1 chain: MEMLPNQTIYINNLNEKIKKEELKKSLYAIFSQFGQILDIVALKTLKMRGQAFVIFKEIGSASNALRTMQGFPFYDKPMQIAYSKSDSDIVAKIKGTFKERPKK

SNF RRM1 [2] = target: T2, SNF RRM1 (Drosophila melanogaster, UniProt P43332 1-104); experiment: SPR; SPR 25 C: 10 mM HEPES pH 7.4, 150 mM NaCl, 3 mM EDTA, 0.05% P-20 (U1hpII); 50 mM PBS pH 7.0, 1 mM EDTA, 0.05% P-20 (poly(U)). EMSA: 4% native gel, protein ~1 uM, buffer by reference; details: protein: recombinant; tags: pET-21d(+) vector; label: biotin; hairpin
T2 sequence: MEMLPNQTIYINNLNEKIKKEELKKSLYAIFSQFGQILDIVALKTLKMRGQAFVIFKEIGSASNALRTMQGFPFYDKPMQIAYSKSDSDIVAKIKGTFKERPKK

[3] = target: T3, SNF full-length (NMR, SPR) (Drosophila melanogaster, UniProt P43332 1-216); experiment: NMR titration; protein:RNA 1:15; both RRMs perturbed; SPR 25 C: 10 mM HEPES pH 7.4, 150 mM NaCl, 3 mM EDTA, 0.05% P-20 (U1hpII); 50 mM PBS pH 7.0, 1 mM EDTA, 0.05% P-20 (poly(U)). EMSA: 4% native gel, protein ~1 uM, buffer by reference; details: protein: recombinant; tags: pET-21d(+) vector
T3 sequence: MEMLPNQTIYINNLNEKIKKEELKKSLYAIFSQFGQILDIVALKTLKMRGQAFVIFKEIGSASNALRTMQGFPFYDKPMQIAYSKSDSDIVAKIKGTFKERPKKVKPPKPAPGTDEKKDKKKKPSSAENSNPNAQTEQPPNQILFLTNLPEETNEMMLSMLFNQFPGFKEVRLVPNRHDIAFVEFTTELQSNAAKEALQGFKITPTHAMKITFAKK

[4] = target: T3, SNF full-length (NMR, SPR); experiment: SPR; n = 1.06; SPR 25 C: 10 mM HEPES pH 7.4, 150 mM NaCl, 3 mM EDTA, 0.05% P-20 (U1hpII); 50 mM PBS pH 7.0, 1 mM EDTA, 0.05% P-20 (poly(U)). EMSA: 4% native gel, protein ~1 uM, buffer by reference; details: protein: recombinant; tags: pET-21d(+) vector; label: biotin
SNF RRM1 [5] = target: T2, SNF RRM1; experiment: SPR; n = 1.20; SPR 25 C: 10 mM HEPES pH 7.4, 150 mM NaCl, 3 mM EDTA, 0.05% P-20 (U1hpII); 50 mM PBS pH 7.0, 1 mM EDTA, 0.05% P-20 (poly(U)). EMSA: 4% native gel, protein ~1 uM, buffer by reference; details: protein: recombinant; tags: pET-21d(+) vector; label: biotin

binding result [1]: no binding
B1: SNF RRM2 (residues 134-216) (protein)
chain: AQTEQPPNQILFLTNLPEETNEMMLSMLFNQFPGFKEVRLVPNRHDIAFVEFTTELQSNAAKEALQGFKITPTHAMKITFAKK

B2: U1hpII (SPR) (structured_RNA)
RNA: GGCUUGGCCAUUGCACCUCGGCUGAGUU
modifications: 5' biotin
Kd (SNF RRM1 [2]): ~4.4 nM

B3: 2U-run (NMR) (ssRNA)
RNA: UUUUUUUUAUUUUUUUUU
binding result [3]: binds

B4: 2U-run poly(U) RNA (SPR) (ssRNA)
RNA: CCCCUCCCCUUUUUUUUUAUUUUUUUU
modifications: 5' biotin
Kd [4]: ~300 nM | Kd (SNF RRM1 [5]): ~6000 nM
